Where no end group is shown, it is not given here. The star is where a group is joined. Biotin = O=C1N[C@H]2[C@H](CS[C@H]2CCCCC(=O)*)N1

One experiment deals with tooth pellicle (thin film derived from salivary glycoproteins, formed in a human mouth) (human). In words: phage ELISA on pellicle-coated bovine enamel, anti-M13-HRP, normalized to internal control. On the technique in general: In an ELISA, binding on a coated surface is turned into a signal by an enzyme label.
Consider TTYHYKNIYQESYQQRNPAV [DenP3], for which the O.D.450 (normalized) is 2.5.

For a further experiment the target is unchanged. In words: phage ELISA on 30 min pellicle-coated bovine enamel, anti-M13-HRP, normalized to DenP3; no-phage control 0.094.
Molecule MPGHQESIKVQNWNRV [DenP117] showed an O.D.450 (normalized) of 0.433.

In turn, GGMGALESYRQWNHLA [DenP113] yielded an O.D.450 (normalized) of 1.35.

WHEPHQFSGENTDYSSSMGT [DenP109] displayed an O.D.450 (normalized) of 0.716.

GVHQYSRPTVPSYLWTSGQH [DenP103] registered an O.D.450 (normalized) of 0.879.

Molecule DGYKLQTSLDWQMWNP [DenP111] returned an O.D.450 (normalized) of 1.05.

Molecule FPSKWYNHHRHITGHV [DenP112] had an O.D.450 (normalized) of 0.413.

In the case of NQQMKLVPQHWHRAQP [DenP119], the O.D.450 (normalized) amounted to 1.05.

On to EFYPFAEVPPEKSGIGRQVF [DenP102], for which the O.D.450 (normalized) came to 0.52.

GYGQYVSQQTWAHSNK [DenP115] gave an O.D.450 (normalized) of 0.501.

The molecule SFSWHRGDWELGHQSKTMGM [DenP106] registered an O.D.450 (normalized) of 1.52.

QFNQTSHSFMHGTSGYVPGK [DenP105] had an O.D.450 (normalized) of 0.47.

The molecule GINKGQRPPWESWHEN [DenP114] showed an O.D.450 (normalized) of 0.703.

GYQPHYVDHTIGWQPMIRPN [DenP104] showed an O.D.450 (normalized) of 0.79.

The molecule THGNKHQSWTYPSEINHKNY [DenP108] had an O.D.450 (normalized) of 1.15.

For the molecule SMWHDITKRYRNPSEMVSAY [DenP107], the O.D.450 (normalized) was 0.726.

In turn, HDHLSWWGQFDRQNLL [DenP116] displayed an O.D.450 (normalized) of 1.05.

On to TTYHYKNIYQESYQQRNPAV [DenP3], for which the O.D.450 (normalized) turned out to be 1.

Molecule AIEYQHSATTPWTMRTRLPP [DenP101] returned an O.D.450 (normalized) of 0.467.

For the molecule NLHSPWPSHAAHHWST [DenP118], the O.D.450 (normalized) came out at 0.641.

For another experiment the target is unchanged. In words: ELISA, 20 uM biotinylated peptide on pellicle-coated bovine enamel, streptavidin-HRP, normalized to DenP03; no-peptide control -0.001.
SSRPHKNENIMQYNVNDRWHITPAK(Biotin) [DenP32-A] came in with an O.D.450 (normalized) of 1.14.

SSRPQVPDYLSPTHQKKAFLEIPTK(Biotin) [DenP29-A] registered an O.D.450 (normalized) of 0.468.

Molecule SSRPIYPNESMSTSNVRGPYHPK(Biotin) [DenP22-A] returned an O.D.450 (normalized) of 0.354.

Regarding SSRPTYQGVPSWPAVIDDAIRRK(Biotin) [DenP19-A], the O.D.450 (normalized) is 0.712.

SSRPAPPTYQTASYPHNLPSKRKMK(Biotin) [DenP28-A] yielded an O.D.450 (normalized) of 0.811.

For SSRPVNPNWVETQALHQPPGNTK(Biotin) [DenP20-A], the O.D.450 (normalized) stood at 0.59.

Take SSRPTTYHYKNIYQESYQQRNPAVK(Biotin) [DenP3-A]: the O.D.450 (normalized) came out at 1.

In turn, SSRPHDPNHLTHQARTIYRNANHTK(Biotin) [DenP23-A] showed an O.D.450 (normalized) of 0.85.

A further experiment shares this target. In words: ELISA titration of biotinylated peptide on pellicle-coated bovine enamel, streptavidin-alkaline phosphatase, 4-MUP fluorescence, Scatchard plot.
For the molecule SSRPHKNENIMQYNVNDRWHITPAK(Biotin) [DenP32-A], the MB50 worked out at 25 µM.

On to SSRPTTYHYKNIYQESYQQRNPAVK(Biotin) [DenP3-A], for which the MB50 amounted to 28 µM.

(Values after US20100247589A1.)
